Experimental data from the supplement of paper PMC9112550, “Optimization of the antimicrobial peptide Bac7 by deep mutational scanning” (BMC Biology, 2022).

test system: Escherichia coli TOP10; test: shrunken log2 fold change of peptide-encoding DNA abundance (4.5 h post-induction vs induction); higher = less antimicrobial activity (less host growth inhibition); details: time post-induction: 4.5 h; library: site-saturation at positions 5, 18, 19, 20
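Further: peptides expressed intracellularly from a pBAD plasmid library in pooled LB shake-flask culture, induced with 0.3% L-arabinose, DNA abundance read by NGS, three biological replicates, DESeq2 with apeglm shrinkage.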

Sequence	shrunken log2 fold change
RRIRTRPPRLPRPRPRPENKPRP	-0.178
RRIRGRPPRLPRPRPRPQGPPRP	0.224
RRIRFRPPRLPRPRPRPRKNPRP	0.266
RRIRDRPPRLPRPRPRPFYWPRP	-0.0675
RRIRARPPRLPRPRPRPPYHPRP	-0.102
RRIRDRPPRLPRPRPRPAKCPRP	0.124
RRIRGRPPRLPRPRPRPNHAPRP	-0.0738
RRIRIRPPRLPRPRPRPLYNPRP	-0.522
RRIRARPPRLPRPRPRPKEDPRP	0.133
RRIRWRPPRLPRPRPRPDQWPRP	0.399
RRIRSRPPRLPRPRPRPMRTPRP	0.654
RRIRGRPPRLPRPRPRPERLPRP	0.586
RRIRSRPPRLPRPRPRPCDVPRP	-0.0124
RRIRNRPPRLPRPRPRPRVQPRP	-0.00489
RRIRSRPPRLPRPRPRPSDCPRP	-0.79
RRIRDRPPRLPRPRPRPYVYPRP	-0.0147
RRIRYRPPRLPRPRPRPHKFPRP	-0.609
RRIRIRPPRLPRPRPRPYEMPRP	-0.00062
RRIRGRPPRLPRPRPRPETRPRP	0.109
RRIRCRPPRLPRPRPRPHKHPRP	-0.58
RRIRCRPPRLPRPRPRPERMPRP	-0.015
RRIRIRPPRLPRPRPRPSATPRP	-0.17
RRIRSRPPRLPRPRPRPCWWPRP	0.159
RRIRHRPPRLPRPRPRPARKPRP	-0.164
RRIRTRPPRLPRPRPRPYHRPRP	0.0446

Sequence	shrunken log2 fold change
RRIRQRPPRLPRPRPRPYKSPRP	-0.248
RRIRLRPPRLPRPRPRPDHWPRP	0.143
RRIRHRPPRLPRPRPRPFRVPRP	-0.371
RRIRKRPPRLPRPRPRPCNDPRP	-0.0241
RRIRARPPRLPRPRPRPSSYPRP	-0.342
RRIRDRPPRLPRPRPRPHLNPRP	-0.152
RRIRHRPPRLPRPRPRPKGPPRP	0.216
RRIRPRPPRLPRPRPRPERVPRP	0.451
RRIRPRPPRLPRPRPRPKWEPRP	-0.0741
RRIRFRPPRLPRPRPRPDPEPRP	-0.0327
RRIRFRPPRLPRPRPRPAYDPRP	-0.293
RRIRRRPPRLPRPRPRPPGSPRP	0.413
RRIRSRPPRLPRPRPRPVRRPRP	0.558
RRIRGRPPRLPRPRPRPMADPRP	0.173
RRIRIRPPRLPRPRPRPDRIPRP	0.0297
RRIRMRPPRLPRPRPRPSMDPRP	0.0865
RRIRQRPPRLPRPRPRPSPCPRP	-0.0648
RRIRSRPPRLPRPRPRPVRGPRP	0.573
RRIRCRPPRLPRPRPRPPIGPRP	-0.079
RRIRWRPPRLPRPRPRPLYMPRP	-0.684
RRIRGRPPRLPRPRPRPRRHPRP	0.612
RRIRDRPPRLPRPRPRPMFSPRP	-0.142
RRIRFRPPRLPRPRPRPFGYPRP	-0.113
RRIRTRPPRLPRPRPRPLGQPRP	-0.137
RRIRQRPPRLPRPRPRPYMVPRP	-0.176

Sequence	shrunken log2 fold change
RRIRDRPPRLPRPRPRPGTNPRP	-0.344
RRIRPRPPRLPRPRPRPRFIPRP	-0.184
RRIRRRPPRLPRPRPRPPYWPRP	0.625
RRIRMRPPRLPRPRPRPGNDPRP	1.19
RRIRSRPPRLPRPRPRPAINPRP	-0.131
RRIRFRPPRLPRPRPRPLFYPRP	-0.0429
RRIRHRPPRLPRPRPRPCGAPRP	0.0817
RRIRTRPPRLPRPRPRPSLEPRP	-0.0452
RRIRMRPPRLPRPRPRPFQFPRP	-0.0349
RRIRRRPPRLPRPRPRPLMYPRP	0.0279
RRIRNRPPRLPRPRPRPPLPPRP	0.363
RRIRLRPPRLPRPRPRPIYDPRP	-1
RRIRWRPPRLPRPRPRPKWFPRP	0.257
RRIRTRPPRLPRPRPRPQCHPRP	-0.0436
RRIRSRPPRLPRPRPRPFMHPRP	-0.321
RRIRWRPPRLPRPRPRPPLHPRP	0.417
RRIRFRPPRLPRPRPRPCHVPRP	0.0269
RRIRKRPPRLPRPRPRPQYDPRP	-0.212
RRIRIRPPRLPRPRPRPMTKPRP	0.0447
RRIRNRPPRLPRPRPRPVIWPRP	-0.112
RRIRFRPPRLPRPRPRPNGMPRP	-0.0957
RRIRVRPPRLPRPRPRPCWWPRP	0.297
RRIRLRPPRLPRPRPRPDLKPRP	-0.0789
RRIRVRPPRLPRPRPRPGHHPRP	0.00137
RRIRLRPPRLPRPRPRPTCNPRP	-0.4

Sequence	shrunken log2 fold change
RRIRMRPPRLPRPRPRPELLPRP	3.52
RRIRFRPPRLPRPRPRPCAQPRP	-0.077
RRIRQRPPRLPRPRPRPQYTPRP	-0.249
RRIRTRPPRLPRPRPRPGYLPRP	0.0359
RRIRDRPPRLPRPRPRPTDSPRP	-0.0622
RRIRTRPPRLPRPRPRPTACPRP	0.277
RRIRARPPRLPRPRPRPLMIPRP	-0.138
RRIRLRPPRLPRPRPRPIECPRP	0.0614
RRIRFRPPRLPRPRPRPYPKPRP	-0.323
RRIRTRPPRLPRPRPRPSKLPRP	-0.473
RRIRKRPPRLPRPRPRPFMGPRP	0.00448
RRIRVRPPRLPRPRPRPVGPPRP	0.0843
RRIRGRPPRLPRPRPRPYKRPRP	-0.217
RRIRERPPRLPRPRPRPANGPRP	-0.042
RRIRTRPPRLPRPRPRPKNFPRP	-0.0884
RRIRLRPPRLPRPRPRPDMAPRP	0.0097
RRIRRRPPRLPRPRPRPGECPRP	0.0146
RRIRNRPPRLPRPRPRPAIPPRP	-0.202
RRIRWRPPRLPRPRPRPAHMPRP	0.0152
RRIRQRPPRLPRPRPRPFIYPRP	-0.372
RRIRTRPPRLPRPRPRPVYRPRP	-0.361
RRIRYRPPRLPRPRPRPKVKPRP	-0.233
RRIRLRPPRLPRPRPRPFQKPRP	0.382
RRIRLRPPRLPRPRPRPANVPRP	-0.304
RRIRQRPPRLPRPRPRPGLYPRP	0.224

Sequence	shrunken log2 fold change
RRIRIRPPRLPRPRPRPCEPPRP	-0.28
RRIRTRPPRLPRPRPRPNFQPRP	0.00569
RRIRVRPPRLPRPRPRPLGLPRP	0.122
RRIRHRPPRLPRPRPRPMGQPRP	-0.239
RRIRFRPPRLPRPRPRPIIEPRP	-0.747
RRIRLRPPRLPRPRPRPTEIPRP	-0.15
RRIRMRPPRLPRPRPRPKVLPRP	0.0109
RRIRYRPPRLPRPRPRPFWHPRP	-0.556
RRIRNRPPRLPRPRPRPGMTPRP	-0.257
RRIRVRPPRLPRPRPRPNEWPRP	0.0106
RRIRCRPPRLPRPRPRPMRNPRP	0.185
RRIRGRPPRLPRPRPRPMGRPRP	0.28
RRIRCRPPRLPRPRPRPTRAPRP	0.632
RRIRDRPPRLPRPRPRPEETPRP	-0.00131
RRIRNRPPRLPRPRPRPLWTPRP	-0.247
RRIRTRPPRLPRPRPRPRDYPRP	0.104
RRIRWRPPRLPRPRPRPIKVPRP	-0.146
RRIRARPPRLPRPRPRPGHWPRP	0.628
RRIRARPPRLPRPRPRPKSRPRP	0.474
RRIRKRPPRLPRPRPRPYMEPRP	-0.0534
RRIRQRPPRLPRPRPRPVPQPRP	0.0925
RRIRKRPPRLPRPRPRPYRIPRP	-0.0846
RRIRTRPPRLPRPRPRPPFRPRP	0.693
RRIRWRPPRLPRPRPRPRYCPRP	-0.139
RRIRMRPPRLPRPRPRPDCKPRP	-0.0414

Sequence	shrunken log2 fold change
RRIRPRPPRLPRPRPRPSSHPRP	-0.417
RRIRKRPPRLPRPRPRPFKYPRP	-0.517
RRIRTRPPRLPRPRPRPSSDPRP	1.82
RRIRFRPPRLPRPRPRPVCWPRP	0.399
RRIRDRPPRLPRPRPRPTYIPRP	-0.393
RRIRDRPPRLPRPRPRPECVPRP	1.3
RRIRGRPPRLPRPRPRPRCWPRP	1.19
RRIRMRPPRLPRPRPRPVLTPRP	0.27
RRIRDRPPRLPRPRPRPDPDPRP	0.671
RRIRNRPPRLPRPRPRPHRSPRP	0.283
RRIRGRPPRLPRPRPRPFDTPRP	0.151
RRIRERPPRLPRPRPRPSIIPRP	-0.188
RRIRDRPPRLPRPRPRPWCAPRP	-0.0367
RRIRFRPPRLPRPRPRPKLIPRP	-0.565
RRIRKRPPRLPRPRPRPRAVPRP	0.849
RRIRFRPPRLPRPRPRPTGHPRP	-0.287
RRIRLRPPRLPRPRPRPCLFPRP	-0.0955
RRIRDRPPRLPRPRPRPSSCPRP	0.00339
RRIRVRPPRLPRPRPRPYQFPRP	-0.0508
RRIRRRPPRLPRPRPRPMIKPRP	0.0444
RRIRPRPPRLPRPRPRPNQFPRP	-0.204
RRIRWRPPRLPRPRPRPYTYPRP	-0.329
RRIRERPPRLPRPRPRPCAFPRP	-0.315
RRIRGRPPRLPRPRPRPDANPRP	1.99
RRIRSRPPRLPRPRPRPVICPRP	-0.0365
